Experimental findings from patent publication US20080075726A1 (VACCINEX, published 2008) are described below.

Residue numbers refer to the chain shown, from its start.

In general, IC50 refers to the concentration at which inhibition is half-maximal.

In the test the target is T1, recombinant human IL-6 (human, UniProt P05231 30-212, limits assumed).
T1 construct: also called rhIL6; human recombinant IL-6
Kind of test: competition ELISA, rhIL-6 in solution against captured IL-6. How it is done: Briefly, plates were coated with 2 μg/ml of mBE4 capture antibody in coating buffer, 100 μl per well. The plates were incubated overnight. Next, the plates were washed 3 times and tapped dry. The plates were then blocked with 200 μl per well of Assay Diluent or 10% FBS in PBS and incubated for 2 hours. […] The reaction was left at RT for 3-4 hours. […] Next, the plates were washed 3 times and tapped dry. […] The plates were incubated for 1-2 hours. The plates were washed 3 times and tapped dry. […] The plates were incubated at RT for 2 hours. (Therefore, any unbound mAb at this point will be measured by ELISA). Plates were then washed 5 times and tapped dry. 100 μl of detection Ab goat anti-human IgG F(ab)′2-HRP (Jackson lab) was added at 1:20,000 dilutions or 1:40,000 dilutions (depending on lot) and the plates were incubated for 1-2 hours. The plates were washed 7 times and tapped dry. Next, the Developer Substrate (equal parts of each reagent in the kit) was pre-mixed and allowed to warm to room temperature before use. Then 100 μl of Developer was added to each well. The plates were allowed to develop for 15 minutes un-sealed in a drawer in the dark. Finally, developing was stopped by adding 100 μl of 2N H₂SO₄ to each well and plates were read as Endpoint at 450 nm-[…].

B1: mAb 186 (antibody, V domains shown)
VH: QVTLKESGPALVKPTQTLTLTCTFSGFSLTTSGMCVSWIRQPPGKALEWLALIYWDDDKRYNPSLRSRLTITKDTSKNQVVLTMTNMDPVDTATYYCARSYDDYLYYALDYWGQGTLVT
VL: DVVMTQSPSSLSASVGGRVTITCRASQTIGDYLNWYQQKPGKAPRLLIYSASIVQSGVPSRFSASGSGTDFTLTISSLQPEDFATYSCQQSYSFPLTFGGGTKLEIK
Take B1: the IC50 is 2 nM.

B2: mAb 187 (antibody, V domains shown)
VH: B1 VH
VL: EIVLTQSPSSLSASAGDTVTIACRASQGIRTALAWYQQKPGRNPKLLISEAYRLQSGVSPKFSGSGFGTDFTLTINSLQPEDFATYYCQQFNDFPLTFGGGTKLEIK
For B2, the half-maximal inhibitory concentration (IC50) stood at 2.4 nM.

B3: mAb 189 (antibody, V domains shown)
VH: B1 VH
VL: DIQMTQSPSSLSAFVGDGVTMTCWASQSINDYLNWYHQRPGEAPELLVFAASNLQIGVPSRFRGSGSETYFTLTINSLQPEDSGTYFCQQTSSFPLTFGGGTKLE
With B3, the half-maximal inhibitory concentration (IC50) came out at 0.72 nM.

B4: mAb 192 (antibody, V domains shown)
VH: B1 VH
VL: DIVMTQSPSSLSASVGDRVTITCRASRNINTYLNWYQQKPGKAPKLLVHSASTLQSGAPSRFSGSGYGTEFTLIISSLQPDDFATYYCQQGYNTLTFGPGTKLE
For the molecule B4, the IC50 is 2.3 nM.

B5: mAb 193 (antibody, V domains shown)
VH: B1 VH
VL: EIVLTQSPSSLSASVGDRVTISCRASQNIIDYLNWYQHKPGKVPTLLISGTSTLQSGVPSRFSGSGFGTDFTLTISSVQPEDVATYYCQQGHGTPLSFGGGTKLEIK
As for B5, the concentration for half-maximal inhibition (IC50) was determined as 2.7 nM.

B6: mAb 123 (antibody, V domains shown)
VH: B1 VH with Y101H
VL: DIVMTQSPATLSVTPGDRVSLSCRASQSISDYLHWYQQKSHESPRLLIKSVSQSISGIPSRFSGSGSGSDFTLSINSVEPEDVGVYYCQNGHSFPLTFGAGTKLELK
B6: the half-inhibitory concentration (IC50) came to 1.1 nM.

B7: mAb 190 (antibody, V domains shown)
VH: B1 VH
VL: DIQMTQSPSSLSASVGDSVTITCRASQTISDFLNWYQQKPGKAPKLLIHASSNLQSGVPSRFSGSGSGTDFTLTISDLQPEDFATYSCQQTYSTLGTFGQGTRLE
For B7, the IC50 was determined as 1.9 nM.

B8: mAb 185 (antibody, V domains shown)
VH: B1 VH
VL: DVVMTQSPSSVSASVGDRVTITCRASQVIDSWLHWYQREPGKAPKILIYAATTLQRGVPSRFSGSGFGTEFTLTISGLQPEDFATYFCQQGYSFPITFGQGTRLEIK
B8: the half-maximal inhibitory concentration (IC50) came out at 1.5 nM.

B9: mAb 188 (antibody, V domains shown)
VH: B1 VH
VL: DIQMTQSPSTLSASVGDRVTITCRASQSISRWLAWYQQKPGKAPKLLISKASSLEYGVPSRFSGSGSGTEFALTISNVQPEDFATYYCQQSFAVPLTFGGGTKLEIK
Take B9: the IC50 is 1.4 nM.

B10: mAb 810 (antibody, V domains shown)
VH: QVTLKESGPTLVKPTQTLTLTCSFSGFSLSTSGVGVGWVRQPPGKALEWLAFIFWDDDKYYSPSLESRLTITKDTSKNQVVLTMTNMDPVDTATYYCARSYDDYLYYSLDYWGQGTLVT
VL: DIQMTQSPSSLSAFVGDGVTMTCWASQSINDYLNWYHQRPGEAPELLVFAASNLQIGVPSRFRGSGSETYFTLTINSLQPEDSGTYFCQNGHSFPLTFGGGTKLEI
Take B10: the half-maximal inhibitory concentration (IC50) turned out to be 0.22 nM.

B11: mAb 968 (antibody, V domains shown)
VH: B10 VH with S108A, L109F
VL: B10 VL
On to B11, for which the half-inhibitory concentration (IC50) was 0.053 nM.

B12: mAb 1192 (antibody, V domains shown)
VH: B10 VH with F54W, S108A
VL: B10 VL
Take B12: the half-inhibitory concentration (IC50) was 0.029 nM.

B13: mAb 963 (antibody, V domains shown)
VH: B10 VH with Y101G, S108A
VL: B10 VL
For the molecule B13, the IC50 came out at 0.09 nM.

B14: mAb 1155 (antibody, V domains shown)
VH: B10 VH with Y101A, L109F, Y111T
VL: B10 VL with N90H
As to B14, the IC50 was determined as 0.032 nM.

B15: mAb 1127 (antibody, V domains shown)
VH: B10 VH with Y106M, S108A
VL: B10 VL
Turning to B15, the IC50 was found to be 0.09 nM.

B16: mAb 1154 (antibody, V domains shown)
VH: B10 VH with Y101A, L109F, Y111T
VL: B10 VL
In the case of B16, the IC50 was determined as 0.027 nM.

B17: mAb 202 (antibody, V domains shown)
VH: B1 VH with Y101H
VL: B7 VL
In the case of B17, the 50% inhibitory concentration (IC50) was determined as 2.4 nM.

B18: mAb 205 (antibody, V domains shown)
VH: B1 VH with Y101H
VL: B5 VL
With B18, the IC50 came to 7.4 nM.

B19: mAb 765 (antibody, V domains shown)
VH: B10 VH with S108A
VL: B10 VL with G91A
Regarding B19, the IC50 is 0.07 nM.

B20: mAb 992 (antibody, V domains shown)
VH: B10 VH with S108A, Y111T
VL: B10 VL
As to B20, the IC50 amounted to 0.065 nM.

B21: mAb 191 (antibody, V domains shown)
VH: B1 VH
VL: B1 VL with K39R, A64G, D70H
For the molecule B21, the half-inhibitory concentration (IC50) stood at 1.5 nM.

B22: mAb 1123 (antibody, V domains shown)
VH: B10 VH with S100F, S108A
VL: B10 VL
Turning to B22, the IC50 is 0.11 nM.

B23: mAb 774 (antibody, V domains shown)
VH: B10 VH with S108A
VL: B10 VL with N90S
Regarding B23, the half-inhibitory concentration (IC50) was determined as 0.16 nM.

B24: mAb 197 (antibody, V domains shown)
VH: B1 VH with Y101H
VL: B8 VL
For the molecule B24, the IC50 amounted to 3.7 nM.

B25: mAb 808 (antibody, V domains shown)
VH: B10 VH with S108A
VL: B10 VL with H92W
Take B25: the 50% inhibitory concentration (IC50) came to 0.08 nM.

B26: mAb 275 (antibody, V domains shown)
VH: B1 VH
VL: B10 VL
B26: the IC50 came out at 0.7 nM.

B27: mAb 1156 (antibody, V domains shown)
VH: B10 VH with Y101A, L109F, Y111T
VL: B10 VL with N90S
B27: the IC50 came out at 0.023 nM.

B28: mAb 770 (antibody, V domains shown)
VH: B10 VH with S108A
VL: B10 VL with N90H
With B28, the concentration for half-maximal inhibition (IC50) was 0.12 nM.

B29: mAb 201 (antibody, V domains shown)
VH: B1 VH with Y101H
VL: B3 VL
With B29, the concentration for half-maximal inhibition (IC50) was found to be 2 nM.

B30: mAb 179 (antibody, V domains shown)
VH: B1 VH
VL: B6 VL
For the molecule B30, the IC50 lay in the range of 0.85 to 4.2 nM.

B31: mAb 239 (antibody, V domains shown)
VH: QVTLKESGPTLVKPTQTLTLTCIFSGFSFKTSGVSVGWIRQPPGKALEWLALIYWDDDKRYSPSLKNRLTITRDTSKNQVVLTMTNMDPVDTATYYCARSYDDYLYYALDYWGQGTLVT
VL: DVVMTQSPSSVSASVGDRVTITCRASQDIDNFLAWYQQKPGKAPNLLIYKVSSLRSGVPSRFSGSRSGTDFTLTITSLQPEDFATYFCQQTRRFPLTFGPGTKLE
For B31, the half-inhibitory concentration (IC50) is 9.6 nM.

B32: mAb 241 (antibody, V domains shown)
VH: B10 VH with S108A
VL: B31 VL
As to B32, the IC50 was found to be 6.5 nM.

B33: mAb 237 (antibody, V domains shown)
VH: B31 VH with I23T, F29L, K30R, I39F, I53V, K59R, S62N
VL: B31 VL
Consider B33, for which the IC50 was 6.5 nM.
